Results published in US20250043290A1, “RNA SEQUENCES THAT INDUCE FLUORESCENCE OF SMALL MOLECULE FLUOROPHORES, MOLECULAR COMPLEXES, SENSORS, AND METHODS OF USE THEREOF” (CORNELL UNIVERSITY, priority 2021, published 2025).
Entries after “also recorded” stand apart in the source; their conditions may differ.

How the values were obtained:
[1] = Fluorescence activation of DFHBI-1T by aptamers in vitro; format: biochemical
Description: FIG. 1A is a schematic illustrating the strategy for evolution of the add A-riboswitch aptamer. Indicated are helices P1-P3, junctional strands (J1/2, J2/3, J3/1), kissing loop (gray lines), and adenine interactions with the aptamer (dotted line) (5′-CUUCAUAUAAUCCUAAUGAUAUGGUUUGGGAGUUUCUACCAAGAGCCUUAAACUCUUGAUUAUGAAG-3′ (SEQ ID NO:36)). The chemical structure of adenine and fluorophores are shown. Three regions (Region 1: 5′-UAU AAU-3′ (SEQ ID NO:37)), Region 2: 5′-AGU UUC UAC C-3′ (SEQ ID NO:38); Region 3: 5′-GAU UAU-3′ SEQ ID NO:39), which include J1/2, J2/3, and J3/1 were randomized in both size and sequence resulting in a sprouts/clips library for SELEX. Each nucleotide in the colored regions was replaced using a combination of random stochastic deletion (designated “N”) and random stochastic insertion (designated “n”). FIG. 1B is schematic showing a three dimensional structure of the add A-riboswitch aptamer highlighting the adenine-binding pocket (PDB 1Y26). The mutagenized regions are shown in the same color as FIG. 1A. Adenine is indicated by the arrow. FIG. 1C is a schematic illustrating the evolution of the add A-riboswitch aptamer into Squash, a DFHBI-1T-binding aptamer. The sprouts/clips library was selected for binding to DFHBI-conjugated agarose resulting in aptamer 9-1. Aptamer 9-1 was subjected to two consecutive rounds of directed evolution generating DE2-6. A pair of mutations was introduced in DE2-6 to strengthen the kissing loop interaction resulting in Squash. FIG. 1D is a graph showing fluorescence activation of DFHBI-1T by different aptamer intermediates that led to Squash. The values inside the bars indicate fold-activation of DFHBI-1T fluorescence by the corresponding aptamer. Data represent mean values±s.d. for n=3 independent experiments. […]
FIG. 6A is a bar graph showing fluorescence activation of DFHO by Squash and its precursors. Fluorescence was measured with 200 nM dye and 10 μM RNA (ex: 495 nm, em: 562 nm, except for Corn; ex: 505 nm, em: 545 nm). […] FIG. 6B is a bar graph showing fluorescence of initial hits after Round 7 of SELEX. In vitro transcribed RNAs from each hit (1 μM final) were mixed with DFHBI-1T (10 μM final) and the fluorescence was measured (ex: 452 nm, em: 503 nm, except for Broccoli; ex: 472 nm, em: 507 nm). […] FIGS. 6C-6D are bar graphs showing fluorescence measurements of the hits with DFHBI-1T after first (FIG. 6C) and second (FIG. 6D) round of directed evolution, measured as in FIG. 6B. […] FIG. 6E is a bar graph showing fluorescence measurements of hits using DFHO after the second round of directed evolution measured as in FIG. 6A. The fluorescence of the hits were normalized against Corn. […] FIG. 6F is a graph showing normalized fluorescence. […] Fluorescence was measured as in FIG. 6A. […]

In vitro folding of RNAs = format: physicochemical; conditions: 40 mM HEPES-KOH (pH 7.4), 100 mM KCl, 0.5 mM MgCl2
Procedure: Briefly, the fluorescence intensities of two solutions were compared: one having excess fluorophore and limiting RNA, and the other with excess RNA and limiting fluorophore. This allows calculation of the percent of the aptamer that is folded. For these experiments, 0.2 μM of fluorophore (or RNA) and 10 μM of RNA (or fluorophore) was used. The signal from the limiting RNA condition was divided by the signal from the limiting fluorophore condition to determine the fraction folded.
To prepare this complex, 10 μM Squash is incubated with 0.2 μM DFHO. By having large excess of Squash, there is likely to be enough folded Squash to form 0.2 μM Squash-DFHO complex. Next, 0.2 μM Squash is incubated with excess (10 μM) DFHO.

[2] = Potassium-dependence assay; format: physicochemical; conditions: buffers with K+, Na+ or Li+
Procedure: For potassium-dependence assay, separate buffers were prepared for K^+, Na^+ and Li^+. HEPES solution was neutralized with KOH, NaOH or LiOH to generate a 1 M solution (pH 7.4). RNA (1 μM final) was diluted in a buffer containing 40 mM HEPES (pH 7.4) and 0.5 mM MgCl2. Then the salts (KCl, NaCl or LiCl) were added to a final concentration of 100 mM to the corresponding solutions. Finally, DFHBI-1T or DFHO was added to the RNA solution at a final concentration of 10 μM and incubated for 20 minutes. The fluorescence was measured on a FluoroMax-4 fluorimeter.

B1: Squash: fluorogenic RNA aptamer evolved from the add A-riboswitch aptamer, binds DFHBI-1T and DFHO; SEQ ID NO: 12 (SEQ ID NO: 1) (nucleic acid)
chain: AGGUGAGCCCAAUAAUACGGUUUGGGUUAGGAUAGGAAGUAGAGCCGUAAACUCUCUAAGCG
modifications: RNA, backbone not given here
Fold activation of DFHBI-1T fluorescence [1]: 1064 fold | % folded in vitro (In vitro folding of RNAs): approximately 80% | Fluorescence dependence on K+ [2]: fluorescent in K^+-free buffers; also recorded: not dependent on potassium
